# Positions count from the first letter of the chain named.
# T1: mSNAPc#2 SNAP190-Y389A (Homo sapiens, UniProt Q5SXM2;Q92966;Q16533;O75971 1-505;1-411;1-268;1-98, Y389A)
# T1 sequence 1: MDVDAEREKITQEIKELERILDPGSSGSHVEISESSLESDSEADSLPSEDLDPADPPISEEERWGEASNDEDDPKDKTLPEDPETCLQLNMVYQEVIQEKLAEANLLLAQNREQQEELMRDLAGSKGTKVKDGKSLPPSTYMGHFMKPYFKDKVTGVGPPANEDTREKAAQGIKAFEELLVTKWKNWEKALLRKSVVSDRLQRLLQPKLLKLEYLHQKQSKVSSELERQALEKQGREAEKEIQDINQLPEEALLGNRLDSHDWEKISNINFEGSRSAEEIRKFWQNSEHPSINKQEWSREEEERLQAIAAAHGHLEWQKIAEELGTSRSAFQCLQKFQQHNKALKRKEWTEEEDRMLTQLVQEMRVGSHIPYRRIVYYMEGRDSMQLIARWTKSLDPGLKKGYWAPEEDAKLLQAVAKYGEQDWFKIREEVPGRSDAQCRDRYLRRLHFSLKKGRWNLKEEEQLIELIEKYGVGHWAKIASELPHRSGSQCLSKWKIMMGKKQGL
# T1 sequence 2: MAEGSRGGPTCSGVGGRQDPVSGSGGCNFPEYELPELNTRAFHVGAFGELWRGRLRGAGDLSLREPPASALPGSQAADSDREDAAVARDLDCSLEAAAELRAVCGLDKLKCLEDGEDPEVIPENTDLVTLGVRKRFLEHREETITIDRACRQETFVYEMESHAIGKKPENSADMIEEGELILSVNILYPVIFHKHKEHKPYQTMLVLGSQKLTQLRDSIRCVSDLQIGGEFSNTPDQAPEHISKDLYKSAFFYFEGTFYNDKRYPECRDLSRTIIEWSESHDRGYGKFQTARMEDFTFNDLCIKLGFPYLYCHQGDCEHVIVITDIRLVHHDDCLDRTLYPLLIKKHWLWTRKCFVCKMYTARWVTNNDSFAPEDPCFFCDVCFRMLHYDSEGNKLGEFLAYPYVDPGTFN
# T1 sequence 3: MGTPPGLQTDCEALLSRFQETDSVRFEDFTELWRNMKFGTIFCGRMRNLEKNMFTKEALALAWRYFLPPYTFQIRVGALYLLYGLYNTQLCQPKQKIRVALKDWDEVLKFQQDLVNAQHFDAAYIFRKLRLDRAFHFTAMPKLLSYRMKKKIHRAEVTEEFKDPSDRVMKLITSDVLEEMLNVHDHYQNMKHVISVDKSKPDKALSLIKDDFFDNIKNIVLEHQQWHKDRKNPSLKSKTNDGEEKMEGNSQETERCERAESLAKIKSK
# T1 sequence 4: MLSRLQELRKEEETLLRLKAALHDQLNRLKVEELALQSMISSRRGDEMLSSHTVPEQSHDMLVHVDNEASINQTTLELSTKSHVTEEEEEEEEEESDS
# T2: mSNAPc#2 WT (Homo sapiens, UniProt Q5SXM2;Q92966;Q16533;O75971 1-505;1-411;1-268;1-98)
# T2 sequence 1: T1 sequence 1 with A389Y
# T2 sequence 2: T1 sequence 2
# T2 sequence 3: T1 sequence 3
# T2 sequence 4: T1 sequence 4
# B1: 25 bp hU6-1 PSE (SPR) (dsDNA)
# DNA 1: TGCTTACCGTAACTTGAAAGTATTT
# DNA 2: AAATACTTTCAAGTTACGGTAAGCA
# Key:
# mSNAPc#2 SNAP190-Y389A = target: T1, mSNAPc#2 SNAP190-Y389A; assay: SPR; EMSA: 100 mM KCl, 25 mM HEPES-K pH 7.6, 12.5 mM MgCl2, 10 uM ZnCl2, 0.1 mM EDTA, 10% glycerol, 3 mM DTT, 0.5 mM PMSF, 50 nM DNA, RT 30 min; SPR: 100 mM KCl, 12.5 mM MgCl2, 10 uM ZnCl2, 0.1 mM EDTA, 0.05% P20, 25 C; conditions: protein: recombinant; tags: as P1; copies: 1;1;1;1
# mSNAPc#2 WT = target: T2, mSNAPc#2 WT; assay: SPR; protein immobilized; EMSA: 100 mM KCl, 25 mM HEPES-K pH 7.6, 12.5 mM MgCl2, 10 uM ZnCl2, 0.1 mM EDTA, 10% glycerol, 3 mM DTT, 0.5 mM PMSF, 50 nM DNA, RT 30 min; SPR: 100 mM KCl, 12.5 mM MgCl2, 10 uM ZnCl2, 0.1 mM EDTA, 0.05% P20, 25 C; conditions: protein: recombinant; tags: FLAG N-term SNAP190; 6xHis N-term SNAP43; copies: 1;1;1;1
binder,measurement,setting,value
B1,Kd,mSNAPc#2 SNAP190-Y389A,1080 nM
same,Kd,mSNAPc#2 WT,289 nM

# Reference: article PMC9652321, “Structural basis of human SNAPc recognizing proximal sequence element of snRNA promoter”
